According to US20240325562A1, “INTERNALIZING BINDING MOLECULES” (LinXis B.V., priority 2020, published 2024):
Numbering of substitutions follows the chain as printed.

B1: SP14P: VHH single domain antibody targeting PDGFRB, SEQ ID NO: 81 (protein)
VHH: EVQLVESGGGLVQAGDSLRLSCVVSGLTFSRYGMGWFRQATGKEREFVGGISVGSSGTMYPNSVKGRFTISRDNAKSTVYLQMNSLKPEDTAVYFCAAIDQGSFVQQRDYRYWGQGTQVTVSS
B2: SP05P: VHH single domain antibody targeting PDGFRB, SEQ ID NO: 25 (protein)
VHH: EVQLVESGGGLVQAGGSLRLSCAASGRTSFSGYAMAWFRQAPGKERDFVASITWSYGYTYYTDSAQGRFTISRDSAKNTVYLEMNSLKPEDTAVYYCAADPKASRFRILREYAYWGQGTQVTVSS
B3: SP12P: VHH single domain antibody targeting PDGFRB, SEQ ID NO: 65 (protein)
VHH: EVQLVESGGGLVQAGGSLRLSCVISGRTSPTYPMGWFRQSPGNEREFVASINWSGGWRNYADSVKGRFTISRDDAKNTVYLQMNSLKPEDTAVYYCARGQYSSGTPVYAHEYAYWGQGTQVTVSS
B4: SP20P: VHH single domain antibody targeting PDGFRB, SEQ ID NO: 113 (protein)
VHH: B3 VHH with G66D
B5: SP07P: VHH single domain antibody targeting PDGFRB, SEQ ID NO: 33 (protein)
VHH: EVQLVESGGGSVQTGGSLRLSCAASGRSFSTYAMAWFRQAPGKEREFVAAINRRATDTVYADSAKGRFIISRDNDKNTVYLQMDSLKTEDTAVYYCAAAKNAYDWRWDRLRDRDYWGQRGQGTQVTVSS
B6: SP08P: VHH single domain antibody targeting PDGFRB, SEQ ID NO: 41 (protein)
VHH: EVQLVESGGGLVQAGGSLRLSCAASGRTFNGYAMAWFRQAPGKERDFVASITWSYGYTYYADSAQGRFTISRDSAKNTVYLEMNSLKPEDTAVYYCAADPKASRFRILRQYAHWGQGTQVTVSS
B7: SP02P: VHH single domain antibody targeting PDGFRB, SEQ ID NO: 9 (protein)
VHH: EVQLVESGGGLVQAGGSLRLSCAASESISSIEQMGWFRQAPGKQRALVAINTYGGRTVYTNSVEGRFTMSRDSAKNMVYLQMTSLEPEDTAVYYCYAQTTAWRGGVWGQGTQVTVSS
B8: 13E8: VHH single domain antibody targeting IGF2R, SEQ ID NO: 249 (protein)
VHH: EVQLVESGGGLVQAGGSLRLSCAASRSISPMGWYRQAPGKQRELVAIMPSSGPPIYADSVQGRFTISRDNAKNTVYLQMNSLKPEDTAVYYCNVGGGYWGQGTQVTVSS
B9: 13A12: VHH single domain antibody targeting IGF2R, SEQ ID NO: 289 (protein)
VHH: EVQLVESGGGLVQAGGSLRLSCAASGIIFGANTVGWYRQVPGKERDVVASITSGDSTYYGDSVRGRFTISRDNAKNTMYLQMNSLKPEDTAIYYCRARTTDGSYWGQGTQVTVS
B10: 13A8: VHH single domain antibody targeting IGF2R, SEQ ID NO: 257 (protein)
VHH: EVQLVESGGGLVPAGGSLRLSCAASGRTFSNYAMGWFRQAPGKERKFVATISWSGGVTYYADSVKGRFTISRDNAKNTVYLLMNSLKPEDTAVYYCAAKRDSSSYDHRRYDYWGQGTQVTVSS
B11: 13C11: VHH single domain antibody targeting IGF2R, SEQ ID NO: 297 (protein)
VHH: EVQLVESGGGLVQAGGSLRLSCAASGLTFSSYTMAWYRQAPGKEREVVAAISSGDSIYHEGSVQGRFIISRDNAKNTVYLQMNSLKAEDTAVYYCRANGPGTYWGQGTQVTVSS
B12: 13G10: VHH single domain antibody targeting IGF2R, SEQ ID NO: 305 (protein)
VHH: B11 VHH with G61D
B13: SP13P: VHH single domain antibody targeting PDGFRB, SEQ ID NO: 73 (protein)
VHH: EVQLVESGGGLVQPGGSLRLSCAASESIFSINYMAWYRQAPGKQRELVAFSIDGSSTNYVDSVRGRFTASRDNAENTLYLQMNSLKPEDTAVYYCYAQGNTWAAGVWGQGTQVTVSS
B14: SP01P: VHH single domain antibody targeting PDGFRB, SEQ ID NO: 1 (protein)
VHH: EVQLVESGGGLAQAGGSLRLSCVASGNIDSANGMAWYRQAPGKQRELVAHITSGTSYYVASVEGRFTISRANAKDTWYLQMNSLKPEDTGVYYCFPIGLSAHWSQGTQVTVSS
B15: SP10P: VHH single domain antibody targeting PDGFRB, SEQ ID NO: 49 (protein)
VHH: EVQLVESGGGLVQAGGSLRLSCAASGRTFNGYAMGWFRQAPGKERDFVAAITWSYGYTHYAESVKGRFSISRDSANNMVYLEMNSLKPEDTAVYYCAADPKASRFRTLRRYDYWGQGTQVTVSS

Key:
[1] = molecular target: hPDGFRB (Homo sapiens, UniProt P09619); assay: Competition assays of PDGFRB VHHs on hPDGFRB; assay type: binding; conditions: for epitope group (mutual competition): VHHs from libraries 1 and 2, four main groups
Sequence of hPDGFRB (P09619 33-532 limits assumed): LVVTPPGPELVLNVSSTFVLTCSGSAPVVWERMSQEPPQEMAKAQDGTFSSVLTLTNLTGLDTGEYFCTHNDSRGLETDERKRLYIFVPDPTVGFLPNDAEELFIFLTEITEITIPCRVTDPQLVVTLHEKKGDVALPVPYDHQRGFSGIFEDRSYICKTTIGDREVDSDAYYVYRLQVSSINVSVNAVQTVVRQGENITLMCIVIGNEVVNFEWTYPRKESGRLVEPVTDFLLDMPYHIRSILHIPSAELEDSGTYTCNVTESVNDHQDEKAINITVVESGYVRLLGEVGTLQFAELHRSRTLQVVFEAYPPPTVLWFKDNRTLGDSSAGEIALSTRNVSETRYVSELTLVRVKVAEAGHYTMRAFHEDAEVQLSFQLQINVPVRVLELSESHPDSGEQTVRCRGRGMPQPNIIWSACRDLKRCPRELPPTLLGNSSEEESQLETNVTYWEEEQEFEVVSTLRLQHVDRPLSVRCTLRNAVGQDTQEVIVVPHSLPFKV
Protocol: (§1) Biparatopic VHH constructs contain two VHH which bind to a different epitope, i.e. which are non-competitive binders. To identify (a) pair(s) of non-competitive binders, competition assays were performed. In the example shown, an Alexa fluor-conjugate of the high affine VHH 13F11 was used as the reporter VHH (13F11-A647, see example 10.2). In the assay, a non-saturating amount (10 nM) of 13F11-A647 was incubated with immobilized hIGF2R-ECD in the presence or absence of 250 nM unconjugated competitor VHH to allow competition to take place.
Similar as to in example 6.1, competition assays were performed to identify unique hPDGFRB- or rPDGFRB binders. Across 10 PDGFRB-binding VHHs obtained from libraries 1 and 2 (e.g. the VHH raised against hPDGFRB), four main groups were identified being first SP01P, SP02P, SP07P and SP13P, second SP05P, SP08P and SP10P, third SP12P and SP20P and finally SP14P. All VHH within each of the first three groups mutually competed.
To evaluate whether the obtained VHHs would qualify as building blocks for multivalent VHH constructs that bind hPDGFRB as well as rPDGFRB (e.g. ‘species cross-reactive’ VHH constructs), competition assays were performed using the most promising VHHs SP02 (raised against hPDGFRB) and SP26P (raised against rPDGFRB).

[2] = molecular target: T1, hIGF2R-ECD (Homo sapiens, UniProt P11717); assay: Competition assay with 13F11-A647 as reporter VHH on immobilized hIGF2R-ECD; assay type: binding; conditions: for competition with reporter VHH 13F11-A647: 10 nM 13F11-A647, 250 nM unconjugated competitor VHH; for less fluorescence intensity (decrease in binding of labelled 13F11): 10 nM labelled 13F11, 250 nM unlabelled competitor VHH
T1 construct: immobilized recombinant human extracellular domain of IGF2R (hIGF2R-ECD) was used
Protocol: With the term “compete” is meant that in a competition assay, such as for instance described in Example 6 of the present invention, the addition of a binding molecule induces a significant decrease in binding of a given VHH, i.e., the VHH to which the competing is determined. “Significant” in this respect is preferably a decrease of >5%, preferably >10% when 250 nM of a binding molecule is added to 10 nM of a fluorescence labelled VHH in an ELISA. […] The same test conditions and threshold apply to a binding molecule directed to PDGFRB when determining whether a binding molecule competes with a given VHH.
as §1

Molecule	epitope group (mutual competition) [1]	competition between SP02 and SP26P ([1]; IRDye800-conjugated SP26P as reporter)	competition with reporter VHH 13F11-A647 [2]	less fluorescence intensity (decrease in binding of labelled 13F11) [2]
B1	lone VHH	–	–	–
B2	second	–	–	–
B3	third	–	–	–
B4	third	–	–	–
B5	first	–	–	–
B6	second	–	–	–
B7	first	did not compete	–	–
B8	–	–	did not compete with 13F11	less than 5%
B9	–	–	competed with 13F11	substantially more decrease in fluorescence intensity
B10	–	–	competed with 13F11	substantially more decrease in fluorescence intensity
B11	–	–	competed with 13F11	substantially more decrease in fluorescence intensity
B12	–	–	competed with 13F11	substantially more decrease in fluorescence intensity
B13	first	–	–	–
B14	first	–	–	–
B15	second	–	–	–
